Experimental data reported in patent US20190134213A1 (Bicycle, published 2019).
Starred links: 1 amine or outer side, 2 acyl side, 3 side chain; linkers in the order of their positions; H or OH if unused. Positions of bridges follow the written chain, without caps; N, C: chain ends. Non-standard residues stand in square brackets, D forms with d. Sar10 = ten sarcosines (spacer), CN(CC(=O)N(C)CC(=O)N(C)CC(=O)N(C)CC(=O)N(C)CC(=O)[*:2])C(=O)CN(C)C(=O)CN(C)C(=O)CN(C)C(=O)CN(C)C(=O)CN(C)[*:1]; SMPP‑derived hindered disulphide linker = hindered disulphide linker derived from SMPP, with two methyl groups, carrying the toxin DM1; 1Nal = N[C@@H](Cc1cccc2ccccc12)C(=O)O; TBMB = c1c(C[*:1])cc(C[*:3])cc1C[*:2]; Tle = CC(C)(C)[C@H](N)C(=O)O; βAla = NCCC(=O)O; DM1 = toxin

Tests used:
[1] = target: T1, MT1-MMP hemopexin-like repeats (MT1-MMP hemopexin domain), residues Cys319-Gly511 from the human gene, … (human, UniProt P50281 319-511); test: fluorescence polarisation competition, tracer 17-69-07-N040, human MT1-MMP hemopexin domain (n = 2)
T1 construct: range 319-511; Secreted soluble protein expressed in HEK293 cells, purified by Ni-NTA and gel filtration; also called hemopexin of MT1-MMP; MMP14
Text: (§1) Here, a pre-formed complex of PEX with the fluorescent PEX-binding tracer is titrated with free, non-fluoresceinated bicyclic peptide. Since all 17-69-based peptides are expected to bind at the same site, the titrant will displace the fluorescent tracer from PEX. Dissociation of the complex can be measured quantitatively, and the Kd of the competitor (titrant) to the target protein determined. The advantage of the competition method is that the affinities of non-fluoresceinated bicyclic peptides can be determined accurately and rapidly.
(§2) Subsequently, the non-fluorescent competitor bicyclic peptide (usually just the bicycle core sequence) is titrated, such that it displaces the fluorescent tracer from the target protein. The displacement of the tracer is measured and associated with a drop in fluorescence polarisation. The drop in fluorescence polarisation is proportional to the fraction of target protein bound with the non-fluorescent titrant, and thus is a measure of the affinity of titrant to target protein.
(§3) The raw data is fit to the analytical solution of the cubic equation that describes the equilibria between fluorescent tracer, titrant, and binding protein. The fit requires the value of the affinity of fluorescent tracer to the target protein, which can be determined separately by direct binding FP experiments (see previous section). […]

[2] = target: T1, MT1-MMP hemopexin-like repeats (MT1-MMP …); test: fluorescence polarisation competition with a fluoresceinated bicyclic tracer on MT1-MMP hemopexin domain
Text: as §1, §2, §3

B1: BT17BDC-28 (peptide)
peptide: {DM1-SMPP‑derived hindered disulphide linker}-[βAla][Sar10]AC[dA]NE[1Nal][dA]CEDFYD[Tle]C-NH2
modifications: linker 4-10-17 via TBMB
notes: also called Bicycle Drug Conjugate of 17-69-07-N241 with DM1
Question: Which Kd [1] does the source give for B1 here?
Answer: Its Kd is 1.65 nM.

B2: 17-69-07-N268 (peptide)
peptide: H-AC[dA]NE[1Nal][dA]CEDFYD[Tle]C-NH2
modifications: linker 2-8-15 via TBMB
SMILES: C[C@H](N)C(=O)N[C@H]1CSCc2cc3cc(c2)CSC[C@H](NC(=O)[C@@H](C)NC(=O)[C@H](Cc2cccc4ccccc24)NC(=O)[C@H](CCC(=O)O)NC(=O)[C@H](CC(N)=O)NC(=O)[C@@H](C)NC1=O)C(=O)N[C@@H](CCC(=O)O)C(=O)N[C@@H](CC(=O)O)C(=O)N[C@@H](Cc1ccccc1)C(=O)N[C@@H](Cc1ccc(O)cc1)C(=O)N[C@@H](CC(=O)O)C(=O)N[C@@H](C(C)(C)C)C(=O)N[C@H](C(N)=O)CSC3
notes: Synthetic bicyclic peptide cyclised on TBMB; lacks the bAla-Sar10 spacer of 17-69-07-N241; Precursor of BT17BDC-27; also called A-(17-69-07) D-Ala1 1Nal4 D-Ala5 tBuGly11; AC(D-Ala)NE(1Nal)(D-Ala)CEDFYD(tBuGly)C
Question: How did the Kd [2] turn out when B2 was run?
Answer: The Kd was 1.7 nM.

B3: BT17BDC-27 (peptide)
peptide: {DM1-SMPP‑derived hindered disulphide linker}-AC[dA]NE[1Nal][dA]CEDFYD[Tle]C-NH2
modifications: linker 2-8-15 via TBMB
notes: also called Bicycle Drug Conjugate of 17-69-07-N268 with DM1
Question: Which Kd [1] does the source give for B3 here?
Answer: Its Kd is 0.69 nM.

B4: 17-69-07-N241 (peptide)
peptide: H-[βAla][Sar10]AC[dA]NE[1Nal][dA]CEDFYD[Tle]C-NH2
modifications: linker 4-10-17 via TBMB
SMILES: C[C@H](NC(=O)CN(C)C(=O)CN(C)C(=O)CN(C)C(=O)CN(C)C(=O)CN(C)C(=O)CN(C)C(=O)CN(C)C(=O)CN(C)C(=O)CN(C)C(=O)CN(C)C(=O)CCN)C(=O)N[C@H]1CSCc2cc3cc(c2)CSC[C@H](NC(=O)[C@@H](C)NC(=O)[C@H](Cc2cccc4ccccc24)NC(=O)[C@H](CCC(=O)O)NC(=O)[C@H](CC(N)=O)NC(=O)[C@@H](C)NC1=O)C(=O)N[C@@H](CCC(=O)O)C(=O)N[C@@H](CC(=O)O)C(=O)N[C@@H](Cc1ccccc1)C(=O)N[C@@H](Cc1ccc(O)cc1)C(=O)N[C@@H](CC(=O)O)C(=O)N[C@@H](C(C)(C)C)C(=O)N[C@H](C(N)=O)CSC3
notes: Synthetic bicyclic peptide cyclised on TBMB; precursor of BT17BDC-28; also called bAla-Sar10-A-(17-69-07) D-Ala1 1Nal4 D-Ala5 tBuGly11; (bAla)-Sar10-AC(D-Ala)NE(1Nal)(D-Ala)CEDFYD(tBuGly)C
Question: With B4 as the binder, how does the Kd [2] read?
Answer: The Kd was 1.21 nM.
